Results from patent US20060015949A1.

Assays:
[1] = biological target: recombinant soluble human CD4 (human) (UniProt P01730); assay: BIAcore, rCD4 coupled to chip, mAb flowed over (avidity)
[2] = biological target: recombinant soluble human CD4 (human) (UniProt P01730); assay: SPR, sCD4 amine-coupled to sensor chip, mAb flowed over
[3] = biological target: native human CD4 on the cell surface (human) (UniProt P01730); assay: flow cytometry, serial dilutions on SupT1 cells, half-maximal fluorescence
[4] = biological target: recombinant soluble human CD4 (human) (UniProt P01730); assay: BIAcore, mAb captured by goat anti-human IgG Fc on chip, rCD4 flowed over (affinity)
[5] = biological target: recombinant soluble human CD4 (human) (UniProt P01730); assay: BIAcore on rCD4 (column repeats Table 19)
[6] = biological target: recombinant soluble human CD4 (human) (UniProt P01730); assay: ratio of Ka on rCD4 (BIAcore) to Ka on nCD4 (SupT1 flow cytometry)

Row | Ka [1] [M⁻¹] | koff [1] [s⁻¹] | kon [1] [M⁻¹ s⁻¹] | Ka [2] [M⁻¹] | koff [2] [s⁻¹] | kon [2] [M⁻¹ s⁻¹] | Ka [3] [M⁻¹] | Ka [4] [M⁻¹] | koff [4] [s⁻¹] | kon [4] [M⁻¹ s⁻¹] | Ka [5] [M⁻¹] | Ratio of Ka (rCD4/nCD4) [6] | Substance
1 | 3.7e+10 | 4.2e-06 | 150000 | 3.7e+10 | 0.00042 | 150000 | – | – | – | – | – | – | Leu3a (antibody)
2 | 3.4e+10 | 1.2e-05 | 400000 | – | – | – | 5.6e+09 | 6.6e+08 | 0.00023 | 150000 | 3.4e+10 | 6.1 | chimeric Leu3a (antibody)
